These results are taken from the supplement of paper PMC12042874.

± gives the uncertainty stated by the source.

The data set can be described thus: amyloid nucleation score (Sup35N fusion, yeast selection) (log enrichment); library NNK1; higher = more nucleation; inactive = no reads after selection. The procedure, abridged:
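Psi-negative yeast expressed Sup35N fused to peptides of 20 random codons. They were induced 24 hours with 100 μM copper sulfate, grown 7 days at 30°C without adenine and uracil, and their plasmid inserts from input and output were Illumina-sequenced. The nucleation score is the DiMSum log enrichment of output over input reads, centred on the mode score of non-aggregating sequences. Sequences with under 100 input reads were excluded.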
With GIISFANRQSF, the amyloid nucleation score was found to be 7.944 ± 0.044.

RCASALVSGVTSVSLRTVQD: the amyloid nucleation score amounted to 0.83 ± 0.73. Turning to MSGCLDDNANC, the amyloid nucleation score was -0.382 ± 0.35. FEDGTCALR registered an amyloid nucleation score of -0.059 ± 0.62. As for LKISWR, the figure is 0.724 ± 0.36; as for TCMTRTLYIL, -0.092 ± 0.37. As for NADCAYYDERYRYSSWLYFY, the figure is -1.2 ± 1.1; as for WQQGLVCQI, 0.241 ± 0.37.

Substance WMDTLVSIGRGGMLRVSCSG gave an amyloid nucleation score of 0.519 ± 0.49. In the case of KWCDMRGYGQRFRCGRMVHV it was -0.727 ± 0.73. For WFICKYNQFDHDVLFSVSTA, the amyloid nucleation score came out at 1.92 ± 0.68. In the case of CNMVLFRVKYY it was 2.67 ± 0.1. As for RYNMPFYRDRRFCFFEKGLG, the figure is -0.077 ± 0.77; as for GDYSCPLGNIINHDPMLFRW, 0.107 ± 0.23. ATREQDFWWFDER registered an amyloid nucleation score of -1.48 ± 1.2. As for ICSGGYLVWELPSGTADQVM, the figure is 0.25 ± 0.48.

As to HWCYVLNS, the amyloid nucleation score entry was “inactive”. In the case of MVGCTYVCLADLFCKLLLMS it was -0.015 ± 0.41. As for VTFRIVRVLPMEPVRTRAGD, the figure is -0.972 ± 0.54; as for SRVISLPVLKI, -0.302 ± 0.9.

On to FSVMKCWPSPRPVNRFLIYA, for which the amyloid nucleation score is -0.706 ± 0.46. YDMIWSSMLGFIERQAYMLP: the amyloid nucleation score was -0.502 ± 0.32. As for NKKKSLRWKGTGNGVPLVVQ, the figure is -0.399 ± 0.86; as for IISLVNVWQNMCR, 5.15 ± 0.077; as for ATCNNI, -0.431 ± 1.4. As for RLLEIWFMLRFGLFVSQCTI, the figure is -0.148 ± 0.34. In the case of ISMTDYVPSMHYAQTRVHLN it was -0.085 ± 0.78; in that of TLSTVTG, 0.357 ± 0.37; in that of VRVWTYLAWVQYLPYQMGLF, “inactive”. As to AYLVFDGQ, the amyloid nucleation score is -0.283 ± 0.37. As for MPNSPQS, the figure is -0.404 ± 0.3; as for SRPDTQPEEAQ, -0.02 ± 0.21; as for RVGKYDLKSRDLGVGVDGVG, 0.586 ± 0.29.

The substance LSGSMGA showed an amyloid nucleation score of -0.105 ± 0.44. As for ATHPDSSMYNRTTSSNFMWF, the figure is -0.573 ± 0.75. As for NFLLTRPAAHELC, the entry is “inactive”; as for SLEVRNRCNVYVAAANLLVM, 2.76 ± 0.095. As for RFSTTFYSVAVVYKRDSR, the figure is 1.86 ± 0.24; as for EDSLFRSVLILMSVMFIQVD, 1.05 ± 0.38.

Take AWRIIPGILAFTFEEM: the amyloid nucleation score was -0.428 ± 0.79.

On to HWPGLVEYGLGWLRGRLVMG, for which the amyloid nucleation score worked out at 0.139 ± 0.6.

In turn, IFEWFVPLEWSV displayed an amyloid nucleation score of 0.012 ± 1.4.

MCDCLPPCDSGWNFFEWGWE yielded an amyloid nucleation score of -0.131 ± 0.69. As for FTFSTGLLFYMFLYGWVH, the figure is -0.62 ± 0.34. In the case of HSCYLANCLSRVQGSKRDTE it was -0.911 ± 0.54; in that of FVGFDCYNSVSCCFTMRVSE, 4.02 ± 0.065. As for TMTVSFPRLEKCTSK, the figure is 0.169 ± 0.35. Substance CICTRGMGSLSDCYELR came in with an amyloid nucleation score of 0.689 ± 0.46.

SNDVIVWYPIDEGHAGCAYL: the amyloid nucleation score was 1.75 ± 0.66. As for IVQTHYN, the figure is -0.817 ± 1.7. In the case of GRMAMWYGTPKGGCCHKSLY it was “inactive”; in that of RVSVDRPQRVGTGSPCCGGD, 2.77 ± 0.11. In the case of YRKFENGVSVIRFEVQCTLV it was 4.88 ± 0.072; in that of KGMYISWIVAVCS, 0.411 ± 0.3; in that of WGQLIRGRNRSSQGEEMRYL, -0.148 ± 0.26. In turn, IRFKRFGADAHGNKYNSRWI had an amyloid nucleation score of 1.13 ± 0.32. AVKYRGNVMFKIRHIMLKCM came in with an amyloid nucleation score of 0.023 ± 0.42. In the case of RLAYYFKGNANDFLAYLAKY it was -0.66 ± 0.76. As for WPRNRHGVVILLVVIANSCS, the figure is -0.379 ± 0.76; as for AHFIFCKTFTLCLLLFCKLT, 0.057 ± 0.83; as for GSTQPCRNTFLLFLPALTIP, “inactive”. As for GSCDMKVVVKCHCEYGMKQD, the figure is 2.24 ± 0.13; as for LKGKTLVMSFFRSAKITVAH, “inactive”; as for CSVTLVVRV, 0.676 ± 0.63. ANSVRWTCMLVIIFQYRPTS returned an amyloid nucleation score of 2.5 ± 0.15. In the case of GGSVRRDQMVYREDMQSNST it was -0.746 ± 0.93; in that of TMTFPKVLWPCGLVRNFCST, -0.294 ± 0.67. In the case of HVYSSVLCQQD it was 0.717 ± 0.65; in that of LVTFPKLSEVIHGKADVMHS, -0.633 ± 0.88; in that of LCKVPLNT, 1.36 ± 0.9. As for YSWTVAKIFTYFSVQLSIFR, the figure is -0.396 ± 0.33. On to ELGLSINFQIANFAACQGYI, for which the amyloid nucleation score worked out at 1.99 ± 0.24. Turning to ICVRMSKFGCWTFSVKRGWQ, the amyloid nucleation score was 0.335 ± 0.77. As for DEPAWCSIFAGDIMLKCC, the figure is 3.57 ± 0.077. In the case of SLVVVGCWLAANQESK it was 1.28 ± 0.33; in that of DGLKGSLCGMGHRLCLKKMN, 0.131 ± 0.41. In the case of PLYKAVLTDK it was “inactive”; in that of HDTDAKVQILNA, 0.626 ± 0.69. As to LVWGFFSHRM, the amyloid nucleation score stood at 2.37 ± 0.14.

Substance VHDENYDRFQGFVLDMLQAH registered an amyloid nucleation score of 0.641 ± 0.37. As for GWLTYSPRSALIDHERRSLQ, the figure is 0.879 ± 0.15; as for FVYFTGIMIC, -0.46 ± 1.

On to EVRTEMIHCNLLTMRFCVLA, for which the amyloid nucleation score turned out to be 0.047 ± 0.64.

Consider FRGRDSCGHH, for which the amyloid nucleation score came to 0.101 ± 0.44. On to PYWSDKWVFCRLKVVFIHVL, for which the amyloid nucleation score was -0.066 ± 0.69. Substance RWNFFTFWFLW displayed an amyloid nucleation score of 0.048 ± 0.46.

Turning to HLGTTNMNVFNVG, the amyloid nucleation score came to 1.79 ± 0.082.

As to SMTSWWVRGLLPVNGD, the amyloid nucleation score came to 2.53 ± 0.13.

The substance RYMDMLLRTDWDWLVSQCRF gave an amyloid nucleation score of -0.344 ± 0.33. In the case of DSCLEGM it was 1.5 ± 0.66; in that of YPGRWSSYRLEGSTKNARNG, “inactive”; in that of CRDAILIEVGNYRHLVLGPV, 0.677 ± 0.52. Turning to ICVGGNGADCFKMTTGGQLC, the amyloid nucleation score was -0.481 ± 0.5.

Regarding DDLPPRRNASFQWNKGFFRV, the amyloid nucleation score was -0.448 ± 1.7. As for NAMVDGQGILIHSL, the entry is “inactive”; as for SRAAFVSSKPYMSWGVTYVH, -0.792 ± 1.3. RGNPNTVGIITWCDDVFFFQ had an amyloid nucleation score of 3.07 ± 0.25. In the case of ITVSKKATWCRQRGMRGLRG it was 1.65 ± 0.59; in that of WRLTSS, -0.809 ± 0.45.

Consider AISVWMSMNGPITPDR, for which the amyloid nucleation score turned out to be 0.907 ± 0.59. For TRTPAWGWFPQST, the amyloid nucleation score was -0.105 ± 0.81. FVGTKQWMARGLVNDVKPVH came in with an amyloid nucleation score of -0.161 ± 0.45. As for ILYTSTVGTQLPKDGLDC, the figure is 0.593 ± 0.34; as for HIENNSLKSDIVGRRGVRLS, -0.549 ± 0.64; as for PGLDFLGLLHQLISVFAIRL, 0.111 ± 0.48. As for GSRNNWKTPWSDNHGTLWRC, the figure is -0.298 ± 0.47. In the case of NYRQHHKTSRVLRLDVGTEP it was -0.252 ± 0.3; in that of CDVVVSSF, -0.117 ± 0.88. For DATVQTWGDVKSGLWWVCCP, the amyloid nucleation score came to 5.62 ± 0.098. In the case of LRSLAPCVLGKTGESEPRAF it was 0.056 ± 0.58; in that of LYVTLV, 2.23 ± 0.17.

In the case of GGYMGL, the amyloid nucleation score is -0.158 ± 0.35. In the case of HHLAKCRTLKLYLLWLQRIL it was 0.471 ± 0.54; in that of GSTRYHAKMDPGWVRFT, -0.482 ± 1.7.

For the substance HCYGIVEFSSSCCEFFRHGV, the amyloid nucleation score turned out to be 6.36 ± 0.092. PQRRSHREKA displayed an amyloid nucleation score of -0.557 ± 0.62.

As for CIVNMNRGWISIDLLRD, the amyloid nucleation score was 5.78 ± 0.073. In the case of SIVNVDVALSHLCSYQRSRM it was 4.11 ± 0.1. In the case of VFWGL it was 0.072 ± 0.47; in that of LYITVIVHNWVLGWKRVLLE, 1.64 ± 0.71; in that of CDYLNGLKGYSP, -0.19 ± 0.35. In the case of QRNVPIGLVRYDAV it was 0.45 ± 1.1; in that of IFCVMVLSWSAVDPALSVA, -1.03 ± 0.81; in that of WSYLQY, -0.364 ± 0.79. For the substance IYRFGFRACVDPGLRIV, the amyloid nucleation score entry was “inactive”. In the case of RDRNNCYFSDDSNLREAT it was -0.634 ± 0.62; in that of KGWWKGLRARSQGPGVSDVW, -0.314 ± 0.57.

On to LHWFQLMANFI, for which the amyloid nucleation score is -0.069 ± 0.28.

Regarding TNPLDPLLCNVYQVLDMPCM, the amyloid nucleation score worked out at 0.497 ± 0.58. As for IVRVEWFSHYSFVFNGIDGG, the figure is 0.679 ± 0.54. The substance NPVGSSRVVYRAPNHVIV had an amyloid nucleation score of 1.18 ± 0.58.

As for SRKKKIVITEPNHSSRHQSV, the amyloid nucleation score was determined as 0.003 ± 0.86. In the case of RNYFCIMYRYRCCKV it was 4.23 ± 0.085. In the case of DLSMKRVDKAPCYGNGDYRT it was -0.644 ± 0.98. In the case of NMDRVSFLR it was -0.062 ± 0.6. For SRVSYPGFYYGCPVFQYYSA, the amyloid nucleation score turned out to be 7.589 ± 0.053. The substance FSITLTPHRGSVMNIYTANV registered an amyloid nucleation score of 1.59 ± 0.17. In the case of DWVVSCAYGFSSARNGGVCL it was -0.039 ± 0.39; in that of KDHTWWALCFYIKIFELKVR, 1.39 ± 0.73; in that of EINCHSSMGFMRWPPRSGNG, -0.962 ± 1. As to SLAQFRWVV, the amyloid nucleation score is 1.52 ± 0.13.
